Test results published in US20240199757A1 (UNIVERSITY OF CHICAGO, published 2024).
Residue numbers refer to the chain shown, from its start.

What was measured:
[1] = target: T1, human NT5E expressed on MDA-MB-231 cells (human, UniProt P21589 27-549); assay: flow cytometry on MDA-MB-231 cells, PBS without ATP; -ATP (PBS alone), MDA-MB-231 cells
T1 construct: whole, on cells; also called NT5E-expressing MDA-MB-231 cells; CD73
T1 sequence (looked up): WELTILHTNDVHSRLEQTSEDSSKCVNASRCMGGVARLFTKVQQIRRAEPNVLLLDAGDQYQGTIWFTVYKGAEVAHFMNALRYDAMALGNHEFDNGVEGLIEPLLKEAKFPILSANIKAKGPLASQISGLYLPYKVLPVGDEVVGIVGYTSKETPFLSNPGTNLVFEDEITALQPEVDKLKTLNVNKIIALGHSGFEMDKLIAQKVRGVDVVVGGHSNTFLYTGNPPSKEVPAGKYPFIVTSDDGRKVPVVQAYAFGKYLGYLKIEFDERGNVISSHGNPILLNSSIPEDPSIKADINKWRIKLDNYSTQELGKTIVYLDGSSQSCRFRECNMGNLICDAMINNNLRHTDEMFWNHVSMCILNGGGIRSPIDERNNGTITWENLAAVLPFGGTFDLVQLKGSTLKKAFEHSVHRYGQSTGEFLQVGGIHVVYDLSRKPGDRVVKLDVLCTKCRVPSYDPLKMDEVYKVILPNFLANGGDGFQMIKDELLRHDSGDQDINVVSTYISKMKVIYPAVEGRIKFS
Protocol: Flow cytometry analysis of antibodies binding to human NT5E expressed on MDA-MB-231 cells in ATP-free condition (black) or in 1 mM ATP (red). Top panel: (left) 1780 Fab and (right) 1780 IgG titrations. […] Binding was measured at the indicated range of antibody concentrations and is expressed as mean±st. dev of median fluorescence intensity (MFI) of 1-2 replicates. Data were analyzed using OriginLab, and EC₅₀ values are shown next to the fitted curves.
Human MDA-MB-231 cells and murine 4T1 cells were grown to 90% confluency, detached with 5 mM EDTA for 15 min at 37° C. and then resuspended in 37° C. lx PBS (#10010031, Gibco) supplemented with 1% FBS and 1OpM ZnCl2. Separate working buffers (WB) of PBS and 1% FBS with or without fixed nucleotide concentrations were used throughout all washing steps to maintain constant condition. In 96-well plates (#3799, Costar), 0.2×10⁶ cells were added per well. The plates were spun at 500×g for 5 min and the supernatant was removed. Anti-NT5E antibodies were diluted to the desired concentration in 100 μL WB, added to the cells and the plates were incubated for 20 min at 37° C. Plates were spun and cells were washed twice with WB then spun a second time. […] Samples were analyzed by flow cytometry using CytoFLEX (Beckman Coulter) and mean fluorescence intensity (MFI) data was extracted using FlowJo software. […]

[2] = target: T2, Full-length human NT5E (recombinant, in-house) (human, UniProt P21589 27-549); assay: ELISA, biotinylated NT5E on neutravidin plate, no cofactors (apo)
T2 construct: also called hNT5E; hNT5EWT
T2 sequence: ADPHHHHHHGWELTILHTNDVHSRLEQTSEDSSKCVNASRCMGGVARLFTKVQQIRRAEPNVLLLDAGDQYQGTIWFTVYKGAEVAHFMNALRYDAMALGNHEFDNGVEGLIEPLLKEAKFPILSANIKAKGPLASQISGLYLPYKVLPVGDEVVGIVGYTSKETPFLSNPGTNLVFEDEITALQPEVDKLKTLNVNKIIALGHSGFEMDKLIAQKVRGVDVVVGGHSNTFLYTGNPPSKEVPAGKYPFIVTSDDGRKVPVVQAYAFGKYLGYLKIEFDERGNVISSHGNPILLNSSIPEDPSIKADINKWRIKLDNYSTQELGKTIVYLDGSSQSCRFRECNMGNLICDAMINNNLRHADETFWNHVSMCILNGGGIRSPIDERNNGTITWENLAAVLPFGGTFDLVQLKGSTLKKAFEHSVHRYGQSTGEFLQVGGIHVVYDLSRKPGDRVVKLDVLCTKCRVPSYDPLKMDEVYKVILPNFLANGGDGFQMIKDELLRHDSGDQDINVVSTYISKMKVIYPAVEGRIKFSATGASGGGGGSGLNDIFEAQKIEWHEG
Protocol: (§1) (B) Protein ELISA: Protein-based multipoint ELISA was performed to estimate the affinity of the generated Fabs and IgGs to NT5E. The binding of the Fabs and IgGs to the closed form of NT5E were determined in ELISA buffer (HBST) supplemented with 10 μM zinc chloride and 1 mM ATP while the binding of the same to open form of NT5E were determined in ELISA buffer (HBST) without any cofactors. A fixed concentration of the immobilized target (50 nM) on ELISA plate was incubated with 3-fold serial dilutions of the purified Fabs and IgGs starting from 3 μM and 1 μM respectively for 15 min. The plates were washed and were subsequently incubated with a secondary HRP-conjugated anti-protein L monoclonal antibody (#32420, ThermoFisher, 1:6000 dilution). As with phage ELISA, the plates were again washed, developed with TMB substrate and quenched with 1.0 M HCl, and absorbance (Abs450) was determined. To determine the affinity (EC50), the data were fitted with a non-linear, 4-parameter logistic curve in OriginLab.

[3] = target: T3, Full-length cynomolgus NT5E (recombinant) (cynomolgus, UniProt P21589 27-549 (human entry)); assay: as above
T3 construct: also called cNT5E; cyno NT5E
T3 chain: T2 sequence with M209T, T363M, V476I
Protocol: as §1

B1: 1789 IgG (antibody, V domains shown)
VH: EVQLVESGGGLVQPGGSLRLSCAASGFNVSYSSIHWVRQAPGKGLEWVASISSSSGYTYYADSVKGRFTISADTSKNTAYLQMNSLRAEDTAVYYCARNYWGWYPFYYFAFDYWGQGTLVTVSS
VL: DIQMTQSPSSLSASVGDRVTITCRASQSVSSAVAWYQQKPGKAPKLLIYSASSLYSGVPSRFSGSRSGTDFTLTISSLQPEDFATYYCQQGWDYPITFGQGTKVEIKR
[1]
  EC50: 124 nM
[2]
  EC50: 2.14 nM
[3]
  EC50: 1.04 nM
